Tests used:
[1] = target: SARS-CoV-2 wild type spike protein (on reporter virus particles) (SARS-CoV-2, UniProt P0DTC2 14-1273); test: cell-based or functional assay
[2] = target: SARS-CoV-2 Spike S1-His (SARS-CoV-2, UniProt P0DTC2 16-685); test: Octet BLI, IgG, monovalent
[3] = target: SARS-CoV1 Spike [change] (SARS-CoV-1, UniProt P59594 14-667); test: Octet BLI, IgG, monovalent

Binder	WT PsV IC50 [1] [pM]	Kd [2] [nM]	Kd [3] [nM]	binding result [3]
A-20.2 (antibody, V domains shown) VH: QVQLVQSGGGVVQPGRSLRLSCAASGFTFDNFAMHWVRQAPGKGLEWVAVIEYDGINKYYADSVKGRFTISRGNSKNTLSLQMNSLRAEDTAVYYCARAQNYYDRYGTLQLDAFDIWGQGTLVTVSS VL: AIQMTQSPSSLSASVGDRVTITCRASQGIRNDLGWYQQKPGKAPKLLIYDASSLQSGVPSRFSGSGSGTDFTLTISSLQPEDFATYYCLQDYNYPLTFGGGTKVEIK	1060	0.293	1.74	–
A-20.3 (antibody, V domains shown) VH: QVQLVQSGGGVVQPGRSLRLSCAASGFTFDNFAMHWVRQAPGKGLEWVAVILYDGINDYYADSVKGRFTISRGNSKNTLSLQMNSLRAEDTAVYYCARAQNYYDRHGTLQLDAFDIWGQGTLVTVSS VL: AIQMTQSPSSLSASVGDRVTITCRASDGIRNDLGWYQQKPGKAPKLLIYEASSLQSGVPSRFSGSGSGTDFTLTISSLQPEDFATYYCLQNYNYPLTFGGGTKVEIK	1510	0.366	3.52	–
A-22.1 (antibody, V domains shown) VH: not shown VL: EIVLTQSPGTLSLSPGERATLSCRASQTVRSDLAWYQQKPGQAPRLLIYGASTRATDISDRFSGSGSGTEFTLTISSLQSEDFAVYYCQQYYEWPPHSDSFGGGTKVEIK	14300	0.278	3.68	–
A-22.3 (antibody, V domains shown) VH: not shown VL: EIVLTQSPGTLSLSPGERATLSCRASQTVRSDLAWYQQKPGQAPRLLIYGGSTRATDISDRFSGSGSGTEFTLTISSLQSEDFAVYYCQQYYEWPPHSDSFGGGTKVEIK	7100	0.245	4.77	–
A-22.2 (antibody, V domains shown) VH: not shown VL: EIVLTQSPGTLSLSPGERATLSCSASQTVRSDLAWYQQKPGQAPRLLIYGGSTRATDISDRFSGSGSGTEFTLTISSLQSEDFAVYYCQQYYEWPPHSDSFGGGTKVEIK	3300	0.254	10.1	–
A-21 (antibody, V domains shown) VH: EVQLVESGGGLVQPGGSLRLSCAASGFTFSRYWMHWVRQAPGKGLVWVSRINSDGSSTTYADSVKGRFTISRDNAKNTLYLQMNSLRAEDTAVYYCARELYYYDSRGAEEGEGWFDPWGQGTLVTVSS VL: QSVLTQPPSVSGAPGQRVTISCTGISSNIGAGYDVHWYQQLPGTAPKLLIYGNSNRPSGVPDRFSASKSGTSAPLAITGLQAEDEADYYCQSSDRSLSGSVFGTGTKVTVL	2780	0.529	9.03	–
A-21.2 (antibody, V domains shown) VH: EVQLVESGGGLVQPGGSLRLSCAASGFTFSRYWMHWVRQAPGKGLVWVSRINSDGSSTTYADSVKGRFTISRDNAKNTLYLQMNSLRAEDTAVYYCARELYYYDSRGAEEGEGWFDPWGQGTLVTVSS VL: QSVLTQPPSVSGAPGQRVTISCTGISSNIGAQYDVHWYQQLPGTAPKLLIYGNSNRPRGVPDRFSASKSGTSAPLAITGLQAEDEADYYCQSSDRSVSGSVFGTGTKVTVL	2630	0.195	7.93	–
A-21.3 (antibody, V domains shown) VH: EVQLVESGGGLVQPGGSLRLSCAASGFTFRRYWMHWVRQAPGKGLEWVSRINSDGSSTTYADSVEGRFTISRDNAKNTLYLQMNSLRAEDTAVYYCARELYYYDRRGAEEGEGWFDPWGQGTLVTVSS VL: QSVLTQPPSVSGAPGQRVTISCTGISSNIGAEYDVHWYQQLPGTAPKLLIYGNSNRPRGVPDRFSASKSGTSAPLAITGLQAEDEADYYCQVSDRYLSGSVFGTGTKVTVL	946	0.241	0.893	–
A-23 (antibody, V domains shown) VH: EVQLVESGGGLVQPGRSLRLSCAASGFTFDDYAMHWVRQAPGKGLEWVSGISWNSGTIGYADSVKGRFIISRDNAKNSLYLQMNSLRGEDMALYYCGKDRKREDPSLGGMDVWGQGTTVTVSS VL: SYVLTQPPSVSVAPGQTARITCGGNNIGSKSVHWYQQKPGQAPVLVVYDDTDRPSGIPERFSGSNSGNTATLTISRVEAGDEADYYCQVWDSSSDHYVFGTGTKVTVL	539	2.11	–	no binding
A-23.1 (antibody, V domains shown) VH: EVQLVESGGGLVQPGRSLRLSCAASGFTIDDYAMHWVRQAPGKGLEWVSGISWNGGTIGYADSVKGRFIISRDNAKNSLYLQMNSLRGEDMALYYCGKDRKREDPSLGGMDVWGQGTTVTVSS VL: SYVLTQPPSVSVAPGQTARITCLGNNIGSKSVHWYQQKPGQAPVLVVYDDTDRPSGIPERFSGSNSGNTATLTISRVEAGDEADYYCQVWDSESDHYVFGTGTKVTVL	423	0.829	–	no binding
A-23.2 (antibody, V domains shown) VH: EVQLVESGGGLVQPGRSLRLSCAASGFTFDDYAMHWVRQAPGKGLEWVSGTSWNSGTIGYADSVKGRFIISRDNAKNSLYLQMNSLRGEDMALYYCVKDRKREDPSLGGMDVWGQGTTVTVSS VL: SYVLTQPPSVSVAPGQTARITCGGNNIGSKSVHWYQQKPGQAPVLVVYDDTDRPSGIPERFSGSNSGNTATLTISRVEAGDEADYYCQVWDVSSDSYVFGTGTKVTVL	416	0.454	–	no binding
A-24.1 (antibody, V domains shown) VH: EVQLVESGGGLVKPGRSLRLSCAASGFTFADYTMSWFRQAPGKGLEWVGFIRSEPYGGTTEYAASVKGRFTISRDDSKSIAYLQMNSLKTEDTAVYYCSRDPWYCSGGDCYAVTGSWFDPWGQGTLVTVSS VL: DIQMTQSPSSLSASVGDRVTITCQASQDIKKYLNWYQQKPGKAPKLLIYDVSNLETGVPSRFSGSGSGTDFTFTISSLQPEDVAIYYCQQYDNLPQTFGQGTKVEIK	65.7	0.999	–	no binding
A-24.3 (antibody, V domains shown) VH: EVQLVESGGGLVKPGRSLRLSCAASGFTFADYTMSWFRQAPGKGLEWVGFIRSEPYGGTTEYAASVKGRFTISRDDSKSIAYLQMNSLKTEDTAVYYCSRDPWYCSGGDCYAVTGSWFDPWGQGTLVTVSS VL: DIQMTQSPSSLSASVGDRVTITCQASRDIKKYLNWYQQKPGKAPKLLIYDVSNLETGVPSRFSGSGSGTDFTFTISSLQPEDVAIYYCQQYDQLPQTFGQGTKVEIE	45.4	0.479	–	no binding
A-24.2 (antibody, V domains shown) VH: EVQLVESGGGLVKPGRSLRLSCAASGFTFADYTMSWFRQAPGKGLEWVGFIRSEPYGGTTEYAASVKGRFTISRDDSKSIAYLQMNSLKTEDTAVYYCSRDPWYCSGGDCYAVTGSWFDPWGQGTLVTVSS VL: DIQMTQSPSSLSASVGDRVTITCQASQDIKQYLNWYQQKPGKAPKLLIYDQSNLETGVPSRFSGSGSGTDFTFTISSLQPEDVAIYYCQQYWNLPQTFGQGTKVEIK	116	0.289	–	no binding
A-24 (antibody, V domains shown) VH: EVQLVESGGGLVKPGRSLRLSCAASGFTFADYAMSWFRQAPGKGLEWVGFIRSKPYGGTTEYAASVKGRFTISRDDSKSIAYLQMNSLKTEDTAVYYCSRDPWYCSGGDCYAVTGSWFDPWGQGTLVTVSS VL: DIQMTQSPSSLSASVGDRVTITCQASQDIKKYLNWYQQKPGKAPKLLIYDVSNLETGVPSRFSGSGSGTDFTFTISSLQPEDVAIYYCQQYDNLPQTFGQGTKVEIK	39	5.36	–	no binding

Source: patent US20260217797A1 (Takeda / Millennium, published 2026)
